Results from patent publication US6383734B1, “Method to determine inhibition of PAK3 activation of Raf-1” (Advanced Research and Technology Institute, Inc., priority 1998, dated 2002).

Test system: Raf-1 serine 338/339
Test: In vitro kinase assay with Raf-1 peptide and Raf-CR3 as substrates
Type: biochemical, human
Settings: PAK3 immunoprecipitated from rat spleen lysates, FIG. 4b
Method: B. Kinase assays. Kinase samples were assessed for their ability to phosphorylate 500 μM Raf-1 peptide (33,[…]345) (SEQ ID NO:4) in the presence of 500 μMATP (containing 2 μCi [γ-^32P]-ATP at 30° C. for 10 minutes. Incubations were analyzed by P-81 phosphocellulose paper assay. Phosphorylation of serine 338/339 in Raf-CR3 was determined by similar incubations containing 1 μg of substrate at 30° C. for 30-60 minutes. Proteins were resolved by SDS-PAGE, transferred to Immobilon-P and the dried, Ponceau S-stained membranes were autoradiographed. Raf-1 kinase activity was measured by the coupled assay method using GST-Mek 1, GST-Erk1 and myelin basic protein by the method of D. Stokoe et al., Science, 264, 1463 (1994).
D. Expression of recombinant Raf-CR3 in E. Coli. DNA sequences encoding residues 307-648 of human c-Raf-1 were amplified by polymerase chain reaction using the 5′-primer […] (SEQ ID NO:5) and the 3′-primer […] (SEQ ID NO:6). The amplified DNA was purified, digested with EcoRI and XhoI and cloned into the Stratagene pCAL-n vector. The entire Raf-CR3 coding sequence was verified by termination reaction PCR DNA sequencing. Raf-CR3 D338E339 and A338A339 substitution mutants were generated by site-directed mutagenesis using the Promega Altered SitesTM in vitro mutagenesis system. Raf-CR3-calmodulin binding protein fusions were expressed in E. coli strain BL21 (pLysS). […]

B1: Immunoprecipitated PAK3: full-length PAK3 immunoprecipitated directly from rat spleen lysates with an anti-PAK3 antibody (protein)
chain: SDNGELEDKPPAPPVRMSSTIFSTGGKDPLSANHSLKPLPSVPEEKKPRNKIISIFSSTEKGSKKKEKERPEISPPSDFEHTIHVGFDAVTGEFTGMPEQWARLLQTSNITKLEQKKNPQAVLDVLKFYDSNTVKQKYLSFTPPEKDGFPSGTPALNTKGSETSAVVTEEDDDDEDAAPPVIAPRPDHTKSIYTRSVIDPIPAPVGDSNVDSGAKSSDKQKKKAKMTDEEIMEKLRTIVSIGDPKKKYTRYEKIGQGASGTVFTATDVALGQEVAIKQINLQKQPKKELIINEILVMKELKNPNIVNFLDSYLVGDELFVVMEYLAGGSLTDVVTETCMDEAQIAAVCRECLQALEFLHANQVIHRDIKSDNVLLGMEGSVKLTDFGFCAQITPEQSKRSTMVGTPYWMAPEVVTRKAYGPKVDIWSLGIMAIEMVEGEPPYLNENPLRALYLIATNGTPELQNPEKLSPIFRDFLNRCLEMDVEKRGSAKELLQHPFLKLAKPLSSLTPLILAAKEAMKSNR
B1 was tested, and the “phosphate incorporated into wild type Raf-CR3 versus Raf-CR3[D338E339] or Raf-CR3[A338A339] mutants” value was 4 fold.
